“Also recorded” adds a separate entry of the source.
What was measured:
[1] = test system: C. difficile R20291 spores; assay: Sporicidal enhancement of CDiff_F1 aptamer in combination with Clinell sporicidal solution: growth / MSC (Example 3); assay type: cell-based, Clostridioides difficile; set-up: key to Growth observed after recovering viable C. difficile R20291 spores: Growth was recorded as “+”; no growth as “−”; details: for Growth observed after recovering viable C. difficile R20291 spores: Aptamers only, treatment 15 minutes
Experimental: (§1) Prior to testing, the CDiff_F1 aptamers were diluted in nuclease free water to a concentration of 80 μM. The aptamers were folded by heating to 95° C. in a digital dry bath for 5 minutes and then immediately placed on ice and cooled to 2° C. The aptamers were stored at 2-4° C. while in use. A C. difficile SH11 bacterial spore inoculum was prepared to 1×108±5×10^7 CFUmL−1 according to internal procedures. The inoculum was confirmed by serial dilution and plating out the resultant suspensions onto brain heart infusion agar supplemented with horse blood and yeast (BHI-YHT). The CDiff_F1 aptamers were further diluted in “BB+Mg2+” buffer to obtain two times in-test concentrations ([…]). Ten microlitres of C. difficile spores were added to 10 μL of each two times in-test concentration of CDiff_F1 aptamer. The spore suspension was pipette mixed and incubated with CDiff_F1 aptamer at room temperature for one hour. The spores were then washed three times by centrifuging at 13,400 RPM for 10 minutes. In each wash the supernatant was removed, and the pellet was resuspended in 100 μL of “BB+Mg2+” buffer. Following the third wash, the spores were resuspended in 100 μL of “BB+Mg2+” buffer and vortexed to obtain a homogenous solution.
(§2) A total of six, two times in-test concentrations of each sporicidal test agent were prepared from the stock (100%, 50%, 25%, 12.5%, 6.25%, 3.125%). Negative and positive control solutions were also prepared. Ten microliter aliquots of each sporicidal test agent concentration or control solution were added to the wells of a 96-well plate. A 10 μL aliquot of the aptamer-spore suspension was added to each test agent or control solution and pipette mixed. The final in-test concentrations of each sporicidal test agent were 50%, 25%, 12.5%, 6.25%, 3.125%, 1.5625%. The plates were then incubated for 15 minutes at 37° C.±2° C. in an anaerobic environment. Following incubation, 50 μL of GH neutraliser was added to each well and pipette mixed. A 10 μL aliquot of neutralised suspension was taken from each well and transferred to an agar plate and incubated for 48 hours at 37° C.±2° C. in an anaerobic environment. Growth was recorded as “+” and no growth as “−”. The minimum sporicidal concentration (MSC) for each concentration was identified as the lowest concentration with no growth for all replicates. […] The test was repeated without the presence of the aptamers and without the presence of the Clinell® sporicidal solution. Testing was also repeated using C. difficile ATCC® 43598™ and C. difficile R20291 spores. Testing was performed in triplicate.

C. difficile SH11 spores = assay: as above; assay type: cell-based, Clostridioides difficile; set-up: key to Growth observed after recovering viable spores: Growth was recorded as “+”; no growth as “−”; details: for Growth observed after recovering viable spores: aptamers only, treatment 15 minutes
Experimental: as §1, §2

[2] = test system: C. difficile ATCC® 43598™ spores; assay: as above; assay type: cell-based, Clostridioides difficile; set-up: key to Growth observed after recovering viable C. difficile ATCC 43598 spores: Growth was recorded as “+”; no growth as “−”; details: for Growth observed after recovering viable C. difficile ATCC 43598 spores: Aptamers only, treatment 15 minutes
Experimental: as §1, §2

[3] = test system: Clostridioides difficile R20291 spores; assay: Sporicidal enhancement of CotE_H2 and CDec_D1 aptamers in combination with Clinell sporicidal solution: growth / MSC (Examples 4 and 6); assay type: cell-based; details: for effect of the addition of aptamer on the sporicidal capabilities of Clinell sporicidal solution / growth of spores in the presence of aptamer alone: R20291 spores
Experimental: (§3) Prior to testing, CotE_H2 aptamers were diluted in nuclease free water to a concentration of 80 μM. The aptamers were folded by heating to 95° C. in a digital dry bath for 5 minutes and then immediately placed on ice and cooled to 2° C. The aptamers were stored at 2-4° C. while in use. A Clostridioides difficile SH11 bacterial spore inoculum was prepared to 1×10^7±5×10^6 CFUmL^−1 according to internal procedures. The inoculum was confirmed by serial dilution and plating out the resultant suspensions onto brain heart infusion agar supplemented with horse blood and yeast (BHI-YHT). CotE_H2 aptamers were further diluted in “TbKst” buffer to obtain 2× in-test concentrations (40, 20, 10 and 5 μM). Ten microlitres of C. difficile spores were added to 10 μL of each 2× in-test concentration of CotE_H2 aptamer. The spore suspension was pipette mixed and incubated with CotE_H2 aptamer at room temperature for one hour. The spores were then washed three times by centrifuging at 13,400 RPM for 10 minutes. In each wash the supernatant was removed, and the pellet was resuspended in 100 μL of “TbKst” buffer. Following the third wash, the spores were resuspended in 100 μL of “TbKst” buffer and vortexed to obtain a homogenous solution.
(§4) A total of six 2× in-test concentrations (1:2 dilutions) of the sporicidal test agent were prepared from the stock (100%, 50%, 25%, 12.5%, 6.25%, 3.125%). Negative and positive control solutions were also prepared. Ten microliter aliquots of each sporicidal test agent concentration or control solution were added to the wells of a 96-well plate. A 10 μL aliquot of the aptamer-spore suspension was added to each test agent or control solution and pipette mixed. The final in-test concentrations of the sporicidal test agent were 50%, 25%, 12.5%, 6.25%, 3.125%, 1.5625%. The plates were then incubated for 15 minutes at 37° C.±2° C. in an anaerobic environment. Following incubation, 50 μL of GH neutraliser was added to each well and pipette mixed. A 10 μL aliquot of neutralised suspension was taken from each well and transferred to an agar plate and incubated for 48 hours at 37° C.±2° C. in an anaerobic environment. Growth was recorded as “+” and no growth as “−”. The minimum sporicidal concentration (MSC) for each spore and aptamer concentration was identified as the lowest concentration with no growth for all replicates. […] The test was repeated without the presence of the aptamers and without the presence of the Clinell® sporicidal solution. Testing was also repeated using C. difficile ATCCR 43598™ and C. difficile R20291 spores. Testing was performed in triplicate. The method was repeated with CDec_D1 aptamers for all three strains of C. difficile spores.

[4] = test system: Clostridioides difficile SH11 spores; assay: as above; assay type: cell-based; details: for effect of the addition of aptamer on the sporicidal capabilities of Clinell sporicidal solution / growth of spores in the presence of aptamer alone: SH11 spores
Experimental: as §3, §4

[5] = test system: Clostridioides difficile ATCC® 43598™ spores; assay: as above; assay type: cell-based
Experimental: as §3, §4

[6] = C. difficile R20291 spores, aptamer without Clinell sporicidal solution
[7] = any concentration of CDec_D1 aptamers without Clinell sporicidal solution
[8] = C. difficile SH11 spores, aptamer without Clinell sporicidal solution
[9] = C. difficile ATCC ® 43598 ™ spores, aptamer without Clinell sporicidal solution
[10] = any concentration of CotE_H2 aptamers without Clinell sporicidal solution

B1: CDiff_F1: aptamer against C.diff spores, SEQ ID NO: 1; Table 4 lists fragments SEQ ID NO: 24, 44, 45 under the same ID (nucleic acid)
DNA: CCAGTGTAGACTACTCAATGCTCTTACGATCCTCACCTGCTAGCACACCCATATCCCATGCGTACTATCCACAGGTCAACC
modifications: listed as DNA, chemistry not given here
- Growth observed after recovering viable C. difficile R20291 spores ([1]; CDiff_F1 aptamer 2.5 μM): +
- Growth observed after recovering viable C. difficile R20291 spores ([1]; CDiff_F1 aptamer 5 μM): +
- Growth observed after recovering viable C. difficile R20291 spores ([1]; CDiff_F1 aptamer 10 μM): +
- Growth observed after recovering viable C. difficile R20291 spores ([1]; CDiff_F1 aptamer 20 μM): +
- effect of the addition of aptamer on the sporicidal capabilities of Clinell sporicidal solution ([1]; R20291 spores): enhanced
- MSC of CDiff_F1 ([1]; R20291 spores, aptamer without Clinell sporicidal solution): >20 µM
- growth of spores in the presence of aptamer alone ([1]; R20291 spores, only CDiff_F1 aptamers): did not affect
- effect of the addition of aptamer on the sporicidal capabilities of Clinell sporicidal solution (C. difficile SH11 spores; SH11 spores): enhanced
- growth of spores in the presence of aptamer alone (C. difficile SH11 spores; SH11 spores, any concentration of CDiff_F1 aptamers without Clinell sporicidal solution): unaffected; also recorded: did not affect
- MSC of CDiff_F1 (C. difficile SH11 spores; SH11 spores, aptamer without Clinell sporicidal solution): >20 µM
- Growth observed after recovering viable spores (C. difficile SH11 spores; CDiff_F1 2.5 μM, SH11 spores): +
- Growth observed after recovering viable spores (C. difficile SH11 spores; CDiff_F1 5 μM, SH11 spores): +
- Growth observed after recovering viable spores (C. difficile SH11 spores; CDiff_F1 10 μM, SH11 spores): +
- Growth observed after recovering viable spores (C. difficile SH11 spores; CDiff_F1 20 μM, SH11 spores): +
- fold reduction in the concentration of peracetic acid required for sporicidal activity (C. difficile SH11 spores; spores of the SH11 strain, 20 μM of the aptamer): up to 4 fold
- effect of the addition of aptamer on the sporicidal capabilities of Clinell sporicidal solution ([2]; ATCC 43598 spores): enhanced
- growth of spores in the presence of aptamer alone ([2]; ATCC 43598 spores, any concentration of CDiff_F1 aptamers without Clinell sporicidal solution): unaffected; also recorded: did not affect
- MSC of CDiff_F1 ([2]; ATCC 43598 spores, aptamer without Clinell sporicidal solution): >20 µM
- Growth observed after recovering viable C. difficile ATCC 43598 spores ([2]; CDiff_F1 aptamer 2.5 μM): +
- Growth observed after recovering viable C. difficile ATCC 43598 spores ([2]; CDiff_F1 aptamer 5 μM): +
- Growth observed after recovering viable C. difficile ATCC 43598 spores ([2]; CDiff_F1 aptamer 10 μM): +
- Growth observed after recovering viable C. difficile ATCC 43598 spores ([2]; CDiff_F1 aptamer 20 μM): +
- fold reduction in the concentration of peracetic acid required for sporicidal activity ([2]; spores of the ATCC 43598 strain, after 15 minutes): up to 2 fold

B2: CDec_D1: aptamer against CdeC, SEQ ID NO: 6; Table 4 lists fragments SEQ ID NO: 38, 39 under CdeC_D1 (nucleic acid)
DNA: CCAGTGTAGACTACTCAATGCCGTGGACTGGTCGGGTTTGGATTCGGCAGATGAATCAGTAGTACTATCCACAGGTCAACC
modifications: DNA, backbone and methylation of C not given here
- MSC of CDec_D1 [3, 6]: >20 µM
- effect of the addition of aptamer on the sporicidal capabilities of Clinell sporicidal solution [3]: enhanced
- growth of spores in the presence of aptamer alone [3, 7]: unaffected
- MSC of CDec_D1 [4, 8]: >20 µM
- effect of the addition of aptamer on the sporicidal capabilities of Clinell sporicidal solution [4]: enhanced
- growth of spores in the presence of aptamer alone [4, 7]: unaffected
- effect of the addition of aptamer on the sporicidal capabilities of Clinell sporicidal solution ([5]; ATCC 43598 spores): enhanced
- growth of spores in the presence of aptamer alone ([5]; ATCC 43598 spores, any concentration of CDec_D1 aptamers without Clinell sporicidal solution): unaffected
- MSC of CDec_D1 [5, 9]: >20 µM

B3: CotE_H2: aptamer against CotE, SEQ ID NO: 11; Table 4 lists fragments SEQ ID NO: 26-30 under the same ID (nucleic acid)
DNA: CCAGTGTAGACTACTCAATGCGGCTGTGTGACTTGACCTTTGGAATGGGTGGGAGGGATGGGTACTATCCACAGGTCAACC
modifications: listed as DNA, chemistry not given here
- MSC of CotE_H2 [3, 6]: >20 µM
- effect of the addition of aptamer on the sporicidal capabilities of Clinell sporicidal solution [3]: enhanced
- growth of spores in the presence of aptamer alone [3, 10]: unaffected
- MSC of CotE_H2 [4, 8]: >20 µM
- effect of the addition of aptamer on the sporicidal capabilities of Clinell sporicidal solution [4]: enhanced
- growth of spores in the presence of aptamer alone [4, 10]: unaffected
- growth of spores in the presence of aptamer alone ([5]; ATCC 43598 spores, any concentration of CotE_H2 aptamers without Clinell sporicidal solution): unaffected
- MSC of CotE_H2 [5, 9]: >20 µM

Reference: patent US12708119B2, “Methods of reducing or preventing clostridioides difficile colonization” (priority 2020, dated 2026)
